How the values were obtained:
human Hsp90β (human) = human Hsp90β (human) (UniProt P08238); experiment: cross-linking
yeast Hsp90 L15A (yeast) = yeast Hsp90 L15A (yeast) (UniProt P02829)
yeast Hsp90 L18R (yeast) = yeast Hsp90 L18R (yeast) (UniProt P02829)
yeast Hsp90 L18A (yeast) = yeast Hsp90 L18A (yeast) (UniProt P02829)

Chain of human Hsp90β, P08238 1-724 (natural protein; other documents disagree on this pair) (P08238 whole entry): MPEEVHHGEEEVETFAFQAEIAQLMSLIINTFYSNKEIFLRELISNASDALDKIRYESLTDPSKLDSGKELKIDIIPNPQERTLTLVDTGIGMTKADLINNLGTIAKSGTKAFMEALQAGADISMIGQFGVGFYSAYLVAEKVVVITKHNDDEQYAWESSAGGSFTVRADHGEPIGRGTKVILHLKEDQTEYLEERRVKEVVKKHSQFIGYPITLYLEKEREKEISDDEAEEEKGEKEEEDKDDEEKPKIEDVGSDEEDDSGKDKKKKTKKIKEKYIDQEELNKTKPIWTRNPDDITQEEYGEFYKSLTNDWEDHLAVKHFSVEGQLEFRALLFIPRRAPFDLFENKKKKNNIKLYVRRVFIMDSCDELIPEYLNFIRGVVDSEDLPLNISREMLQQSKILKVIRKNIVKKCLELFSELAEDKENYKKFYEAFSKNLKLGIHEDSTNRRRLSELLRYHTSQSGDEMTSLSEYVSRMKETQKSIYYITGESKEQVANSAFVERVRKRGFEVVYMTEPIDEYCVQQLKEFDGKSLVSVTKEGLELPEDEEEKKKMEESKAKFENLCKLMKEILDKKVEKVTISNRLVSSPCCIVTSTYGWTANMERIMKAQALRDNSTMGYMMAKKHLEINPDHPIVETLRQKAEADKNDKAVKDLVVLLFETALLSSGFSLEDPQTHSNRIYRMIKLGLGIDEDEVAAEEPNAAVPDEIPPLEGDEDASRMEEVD

Q: Which stoichiometry N (human Hsp90β (human)) does the source give for “human Hsp90β, P08238 1-724 (natural protein; other documents disagree on this pair)” here?
A: 2

Q: With “yeast Hsp90 L15A (from UniProt P02829 1-709) (natural protein)” as the substance, how does the ATPase activity relative to wild-type yeast Hsp90 (yeast Hsp90 L15A (yeast)) read?
A: 157

Q: Which ATPase activity relative to wild-type yeast Hsp90 (yeast Hsp90 L18R (yeast)) does the source give for “yeast Hsp90 L18R (from UniProt P02829 1-709) (natural protein)” here?
A: 42

Q: How did the ATPase activity relative to wild-type yeast Hsp90 (yeast Hsp90 L18A (yeast)) turn out when “yeast Hsp90 L18A (from UniProt P02829 1-709) (natural protein)” was run?
A: 103

— paper PMC2702006
